Data from patent US20240376180A1 (DEUTSCHES ZENTRUM FUR NEURODEGENERATIVE ERKRANKUNGEN E V …, published 2024).
Numbering of substitutions follows the chain as printed.

B1: HK CV38-139 (antibody, V domains shown)
VH: EVQLVESGGGLVQPGGSLRLSCAASGFTVSSNYMSWVRQAPGKGLEWVSVFYSGGSTFYADSVKGRFTISRDNSKNTLYLQMNSLRAEDTAVYYCARGHYDLFDYWGQGTLVTVSS
VL: DIQLTQSPSFLSASVGDRVTITCRASQGISSYLAWYQQKPGKAPKLLIYAASTLQSGVPSRFSGSGSGTEFTLTISSLQPEDFATYYCQQLNSYPPGTFGPGTKVDIKR
B2: HK CVX2-106 (antibody, V domains shown)
VH: QVQLVQSGAEVKKPGSSVKVSCKASGGTFSSYAISWVRQAPGQGLEWMGGIIPIFGTANYAQKFQGRVTITADESTSTAYMELSSLRSEDTAVYYCATRKETTVTTSLVYGMDVWGQGTTVTVSS
VL: not shown
B3: HK CV38-221 (antibody, V domains shown)
VH: EVQLVESGGGLVQPGGSLRLSCAASGITVSSNYMIWVRQAPGKGLEWVSVIYSGGSTYYADSVKGRFTISRDNSKNTLYLQMNSLRAEDTAVYYCARGFGDYYFDYWGQGTLVTVSS
VL: EIVLTQSPGTLSLSPGERATLSCRASQSVSSSYFAWYQQKPGQAPRLLIYGASSRATGIPDRFSGSGSGTDFTLTISRLEPEDFAVYYCQQLYTFGQGTKLEIKR
B4: HL CV07-270 (antibody, V domains shown)
VH: QVQLVESGGGLVKPGGSLRLSCAASGFTFSDYYMTWIRQAPGKGLEWVSYISSSGSTIYYADSVKGRFTISRDNAKNSLYLQMNSLRAEDTAVYYCARARGSSGWYRIGTRWGNWFDPWGQGTLVTVSS
VL: QSALTQPASVSGSPGQSITISCTGTSSDVGGYNYVSWYQQHPGKAPKLMIYEVSNRPSGVSNRFSGSKSGNTASLTISGLQAEDEADYYCSSYTSSSNVVFGGGTMLTVLG
B5: HL CV07-255 (antibody, V domains shown)
VH: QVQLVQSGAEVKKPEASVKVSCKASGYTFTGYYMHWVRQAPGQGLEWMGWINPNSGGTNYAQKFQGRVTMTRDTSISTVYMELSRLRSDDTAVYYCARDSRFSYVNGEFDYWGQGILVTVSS
VL: QSALTQPASVSGSPGQSITISCTRTSSDVESYNLVSWYQQHPGKAPKLMIYEVSKRPSGISNRFSGSKSGNTASLTISGLQAEDEADYYCCSYAGHSTWVFGGGTELTVLG
B6: HL CV07-267 (antibody, V domains shown)
VH: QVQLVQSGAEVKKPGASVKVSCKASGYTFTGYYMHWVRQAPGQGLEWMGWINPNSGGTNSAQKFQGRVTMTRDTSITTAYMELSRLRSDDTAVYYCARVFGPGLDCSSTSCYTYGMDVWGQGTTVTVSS
VL: B5 VL with R24G, E30G, I60V, H96S, T98S, E106K

Target: beta-2 microglobulin (Homo sapiens (Human), UniProt P61769 21-119)
Sequence (P61769 21-119 limits assumed): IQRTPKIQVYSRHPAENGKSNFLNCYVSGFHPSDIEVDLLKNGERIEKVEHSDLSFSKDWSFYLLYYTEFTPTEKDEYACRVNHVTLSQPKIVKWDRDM
Test: routine laboratory ELISA

Binder | binding result
B1 | no binding (tested: 50 µg/ml)
B2 | no binding (tested: 50 µg/ml)
B3 | no binding (tested: 50 µg/ml)
B4 | no binding (tested: 50 µg/ml)
B5 | no binding (tested: 50 µg/ml)

Target: T1, Fc fusion protein of the RBD-SD1 region of HCoV-HKU1 (HCoV-HKU1, UniProt Q5MQD0 310-677)
T1 construct: domain: RBD-SD1 region
T1 sequence: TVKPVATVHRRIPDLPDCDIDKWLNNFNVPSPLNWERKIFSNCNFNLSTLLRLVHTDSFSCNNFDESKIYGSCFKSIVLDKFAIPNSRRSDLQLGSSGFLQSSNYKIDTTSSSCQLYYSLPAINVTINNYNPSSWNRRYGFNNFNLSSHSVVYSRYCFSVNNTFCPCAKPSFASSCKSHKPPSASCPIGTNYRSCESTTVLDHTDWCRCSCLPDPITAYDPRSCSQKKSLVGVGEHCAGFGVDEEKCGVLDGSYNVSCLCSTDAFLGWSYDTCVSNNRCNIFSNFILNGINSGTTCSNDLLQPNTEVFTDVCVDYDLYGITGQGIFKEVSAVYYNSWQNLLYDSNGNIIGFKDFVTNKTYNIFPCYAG
Test: ELISA on captured RBD-SD1-Fc

Binder | binding result
B1 | no binding (tested: 1 µg/ml)
B2 | no binding (tested: 1 µg/ml)
B3 | no binding (tested: 1 µg/ml)
B4 | no binding (tested: 1 µg/ml)
B5 | no binding (tested: 1 µg/ml)

Target: Fc fusion protein of the RBD-SD1 region of SARS-CoV (SARS-CoV, UniProt P59594 306-577)
Test: ELISA on captured RBD-SD1-Fc

Binder | binding result
B1 | no binding (tested: 1 µg/ml)
B2 | no binding (tested: 1 µg/ml)
B3 | no binding (tested: 1 µg/ml)
B4 | no binding (tested: 1 µg/ml)
B5 | no binding (tested: 1 µg/ml)

Target: T2, Fc fusion protein of the RBD-SD1 region of MERS-CoV (MERS-CoV, UniProt K9N5Q8 367-655)
T2 sequence: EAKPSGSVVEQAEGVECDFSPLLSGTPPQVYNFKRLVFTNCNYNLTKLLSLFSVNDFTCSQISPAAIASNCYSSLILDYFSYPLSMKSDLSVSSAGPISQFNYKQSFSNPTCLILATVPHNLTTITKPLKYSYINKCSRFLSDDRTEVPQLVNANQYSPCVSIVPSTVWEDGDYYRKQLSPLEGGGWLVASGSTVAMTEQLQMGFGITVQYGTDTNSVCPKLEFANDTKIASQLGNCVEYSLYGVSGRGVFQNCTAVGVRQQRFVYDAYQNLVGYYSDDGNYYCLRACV
Test: ELISA on captured RBD-SD1-Fc

Binder | binding result
B1 | no binding (tested: 1 µg/ml)
B2 | no binding (tested: 1 µg/ml)
B3 | no binding (tested: 1 µg/ml)
B4 | no binding (tested: 1 µg/ml)
B5 | no binding (tested: 1 µg/ml)

Target: T3, Fc fusion protein of the RBD-SD1 region of HCoV-OC43 (HCoV-OC43, UniProt P36334 318-675)
T3 construct: domain: RBD-SD1 region
T3 sequence: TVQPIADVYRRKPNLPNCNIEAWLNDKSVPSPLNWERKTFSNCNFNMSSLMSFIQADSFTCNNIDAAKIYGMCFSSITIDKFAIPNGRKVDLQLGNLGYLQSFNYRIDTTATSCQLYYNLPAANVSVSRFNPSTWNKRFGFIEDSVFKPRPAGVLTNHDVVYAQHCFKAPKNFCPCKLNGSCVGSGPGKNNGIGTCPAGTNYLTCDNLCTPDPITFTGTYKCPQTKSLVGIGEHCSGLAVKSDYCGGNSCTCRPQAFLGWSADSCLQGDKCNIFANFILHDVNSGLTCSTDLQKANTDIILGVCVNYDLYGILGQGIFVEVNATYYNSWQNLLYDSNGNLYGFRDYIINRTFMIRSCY
Test: ELISA on captured RBD-SD1-Fc

Binder | binding result
B1 | no binding (tested: 1 µg/ml)
B2 | no binding (tested: 1 µg/ml)
B3 | no binding (tested: 1 µg/ml)
B4 | no binding (tested: 1 µg/ml)
B5 | no binding (tested: 1 µg/ml)

Target: T4, Spike protein of authentic SARS-CoV-2 (Munich isolate 984) (SARS-CoV-2, UniProt P0DTC2 14-1273)
Test: cell-based or functional assay

Binder | IC50 (PRNT, authentic SARS-CoV-2) [µg/mL]
B1 | 0.0732
B2 | 0.0176
B3 | 0.173
B4 | 0.0823
B5 | 0.0145

Target: SARS-CoV-2 S protein-RBD-mFc (SARS-CoV-2, UniProt P0DTC2 319-537)
Test: not given

Binder | Kd [nM]
B1 | 0.277
B3 | 0.499

Target: T4, Spike protein of authentic SARS-CoV-2 …
Test: cell-based or functional assay
Set-up: IC90 Neutralizing Assay: unit not given beside the values
Remark: another data set of the same source

Binder | IC50 Neutralizing Assay | IC90 Neutralizing Assay
B2 | ~0.5 µg/mL | –
B4 | – | ~500
B5 | ~0.05 µg/mL | –
B6 | ~500 | –
